Where two headings read alike, the source gives them in different places. A value given as a limit tells only on which side of the number the result lay.

Test [1] concerns the target T1, recombinant soluble human BCMA (Biacore analyte of Example 2) (human, UniProt Q02223 1-54).
T1 construct: also called rhu BCMA; rsol.hu BCMA
T1 sequence: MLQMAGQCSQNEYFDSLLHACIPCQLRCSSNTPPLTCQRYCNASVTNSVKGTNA
The test is described as follows: Biacore 3000 SPR, antibody captured on anti-human IgG, rhu BCMA as analyte, steady state fit to a 1:1 isotherm.

Test [2] has as its target T2, human BCMA (huBCMA), full length, on cells (human, UniProt Q02223 1-184).
T2 construct: also called native huBCMA; B-cell maturation antigen
T2 chain: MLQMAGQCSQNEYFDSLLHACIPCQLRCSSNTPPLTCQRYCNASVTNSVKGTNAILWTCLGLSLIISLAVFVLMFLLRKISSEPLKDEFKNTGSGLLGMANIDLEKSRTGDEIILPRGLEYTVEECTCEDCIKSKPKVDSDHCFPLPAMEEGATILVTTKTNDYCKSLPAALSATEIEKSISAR
As to the kind of experiment: FACS, H929 cells. Background: In flow cytometry, cells or beads pass a laser one at a time.

Test [3] addresses T1, recombinant soluble human BCMA (Biacore …). As to the kind of experiment: Biacore 3000 SPR, antibody captured on anti-human IgG, rhu BCMA as analyte, 25 C. (SPR reads the build-up and loss of mass on a sensor chip optically.)
The target in test [4] is T3, BAFF-R, full length, on transiently transfected cells (human, UniProt Q96RJ3 1-184).
T3 construct: whole, on cells; also called huBAFF-R
T3 sequence (looked up): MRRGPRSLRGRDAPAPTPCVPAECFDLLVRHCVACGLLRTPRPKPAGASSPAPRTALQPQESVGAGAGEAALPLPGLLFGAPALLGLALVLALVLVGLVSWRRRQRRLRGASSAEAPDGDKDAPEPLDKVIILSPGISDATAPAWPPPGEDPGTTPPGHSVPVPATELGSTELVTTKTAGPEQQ
The test is described as follows: FACS on cells transiently transfected with the full-length receptor; positive if MFI is two times the negative control.

The target in test [5] is T4, TACI, full length, on transiently transfected cells (human, UniProt O14836 1-293).
T4 construct: whole, on cells; also called huTACI
T4 sequence (looked up): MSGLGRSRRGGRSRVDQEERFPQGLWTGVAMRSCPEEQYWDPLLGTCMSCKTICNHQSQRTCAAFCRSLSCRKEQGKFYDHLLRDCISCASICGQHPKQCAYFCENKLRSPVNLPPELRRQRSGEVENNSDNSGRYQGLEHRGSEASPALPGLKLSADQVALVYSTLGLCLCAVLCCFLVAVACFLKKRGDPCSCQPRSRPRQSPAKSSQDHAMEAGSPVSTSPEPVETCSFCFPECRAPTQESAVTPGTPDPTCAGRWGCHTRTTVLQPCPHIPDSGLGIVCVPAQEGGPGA
The description is as above.

Test [6] has as its target T2, human BCMA (huBCMA), full length, on …. As to the kind of experiment: cell-based or functional assay.
Test [7] has the same target. The test is described as follows: FACS equilibrium titration on 293T cells transiently transfected with human BCMA (relative FACS affinity).
The target of test [8] is T5, rhuBCMA fusion protein (6xHis::Sumo::huBCMA(aa 5-51)::GGS::G3::Avi) (human).
T5 construct: Monomeric tagged fusion; the entry holds the tags, Sumo and the BCMA part; also called Sumo-BCMA; SumoBCMA
T5 chain: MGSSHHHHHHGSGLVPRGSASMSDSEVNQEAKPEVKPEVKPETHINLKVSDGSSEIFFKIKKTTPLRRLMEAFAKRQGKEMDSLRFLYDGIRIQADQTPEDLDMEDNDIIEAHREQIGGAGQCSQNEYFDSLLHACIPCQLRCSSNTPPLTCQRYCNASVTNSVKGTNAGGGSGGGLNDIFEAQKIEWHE
The test is described as follows: size exclusion chromatography (S200 column, PBS, UV trace), 500 ug antibody incubated with 500 ug sumoBCMA. In general terms: Size exclusion chromatography separates by hydrodynamic size, large species first.

Test [9] concerns the target T6, cynomolgus BCMA, on transiently transfected 293T cells (cynomolgus (Macaca fascicularis), UniProt Q02223 1-184 (human entry)).
T6 construct: also called cyno BCMA
As to the kind of experiment: FACS equilibrium titration on 293T cells transiently transfected with cynomolgus BCMA (relative FACS affinity).

For test [10], the target named is T2, human BCMA (huBCMA), full length, on …. The test is described as follows: FACS, H929 cells.
For test [11], the target named is T7, clipped form of the rhuBCMA fusion protein, SEQ ID NO:357 (human).
T7 chain: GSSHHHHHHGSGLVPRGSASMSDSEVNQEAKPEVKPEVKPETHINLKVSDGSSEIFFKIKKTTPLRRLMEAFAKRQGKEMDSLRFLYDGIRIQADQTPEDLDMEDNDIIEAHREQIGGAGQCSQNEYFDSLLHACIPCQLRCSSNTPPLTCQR
As to the kind of experiment: LC/MS (ESI-TOF, reduced sample) of the SEC-isolated 2A1 + SumoBCMA sample.

In test [12] the target is T8, clipped form of the rhuBCMA fusion protein, SEQ ID NO:356 (human).
T8 chain: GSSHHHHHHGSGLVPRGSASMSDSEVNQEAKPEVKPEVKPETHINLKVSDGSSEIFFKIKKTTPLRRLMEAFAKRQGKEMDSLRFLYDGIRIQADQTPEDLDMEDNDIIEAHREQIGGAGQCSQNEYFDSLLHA
The description is as above.

Test [13] deals with T9, clipped form of the rhuBCMA fusion protein, SEQ ID NO:354 (human).
T9 construct: also called Peak A
T9 chain: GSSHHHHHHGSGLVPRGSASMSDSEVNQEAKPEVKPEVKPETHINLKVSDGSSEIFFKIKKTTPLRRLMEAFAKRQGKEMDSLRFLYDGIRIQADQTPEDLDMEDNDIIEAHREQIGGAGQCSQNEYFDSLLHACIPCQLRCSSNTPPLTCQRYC
The test is described as above.

The target of test [14] is T10, clipped form of the rhuBCMA fusion protein, SEQ ID NO:355 (human).
T10 chain: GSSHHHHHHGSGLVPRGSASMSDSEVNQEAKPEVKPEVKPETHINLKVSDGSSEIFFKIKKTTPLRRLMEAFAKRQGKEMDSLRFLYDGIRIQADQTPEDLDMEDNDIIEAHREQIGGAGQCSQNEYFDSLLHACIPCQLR
The test is described as above.

Test [15] addresses T2, human BCMA (huBCMA), full length, on …. The test is described as follows: FACS, H929 cells.
Test [16] concerns the target T5, rhuBCMA fusion protein …. The test is described as follows: Biacore T200 SPR, antibody captured on anti-human IgG, rBCMA fusion as analyte, 25 C, 1:1 model.
The target of test [17] is T1, recombinant soluble human BCMA (Biacore …). The test is described as follows: Biacore, recombinant soluble human BCMA; measured on parental 2A1; patent says 2A1CV5 binds identically.
The target of test [18] is T2, human BCMA (huBCMA), full length, on …. As to the kind of experiment: FACS on H929 cells, native BCMA, relative binding, indirect.
Test [19] concerns the target T11, rrat BCMA fusion protein (GS::6xHis::Sumo::ratBCMA(aa 2-49)::GGS::G3::Avi) (rat).
T11 chain: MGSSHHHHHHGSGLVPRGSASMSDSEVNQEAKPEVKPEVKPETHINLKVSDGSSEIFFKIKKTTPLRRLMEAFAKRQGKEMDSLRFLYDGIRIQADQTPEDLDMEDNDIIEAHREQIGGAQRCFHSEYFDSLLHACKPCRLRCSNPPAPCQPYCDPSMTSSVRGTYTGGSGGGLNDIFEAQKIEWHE
The test is described as follows: Biacore T200 SPR, antibody captured on anti-human IgG, rBCMA fusion as analyte, 25 C.

Test [20] deals with T2, human BCMA (huBCMA), full length, on …. As to the kind of experiment: FACS on H929 myeloma cells.

T6 sequence (Q02223 other isoform, or with tags, fused parts or gaps): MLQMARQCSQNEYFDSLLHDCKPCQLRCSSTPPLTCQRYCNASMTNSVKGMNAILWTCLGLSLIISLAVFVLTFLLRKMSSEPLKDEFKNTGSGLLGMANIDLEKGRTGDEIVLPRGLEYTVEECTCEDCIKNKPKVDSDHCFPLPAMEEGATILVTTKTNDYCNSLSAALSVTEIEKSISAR

B1: 11F12 (fully human anti-huBCMA monoclonal antibody) (antibody, V domains shown)
VH: QVQLVESGGGVVQPGRSLRLSCAASGFTFSSYGLHWVRQAPGKGLEWVALISYDGSNKYYADSVKGRFTISRDNSKNTLYLQMNSLRAEDTAVYYCWYSSSWTPLDYWGQGTLVTVSS
VL: DIQMTQSPSSLSASVGDRVTITCRASQGIRNDLGWYQQKPGKAPKRLIYAASSLQSGVPSRFSGSGSGTEFTLTISSLQPEDFATYYCLQYYSYPLTFGGGTKVEIKR
notes: also called Ab-6; 11F12_LC#1
One may read the Kd as the equilibrium constant for the complex coming apart. As for B1, the Kd in [1] is 36100 pM.

B2: 2A1 (parental fully human anti-huBCMA monoclonal antibody) (antibody, human IgG1, lambda, V domains shown)
VH: EVQLVESGGGLVKPGRSLRLSCTASGFTFGDYALSWFRQAPGKGLEWVGVSRSKAYGGTTDYAASVKGRFTISRDDSKSFAYLQMNSLKTEDTAVYYCCSSGYSSGWTPFDYWGQGTLVTVSS
VL: not shown
notes: also called Ab-5; Ab-18
What is called EC50 (read off the curve) is the midpoint of the concentration-response curve. For the molecule B2, the figures for the 50% effective concentration (EC50 (read off the curve)) in [2], in [10] and in test [15] were roughly 0.1 µg/mL, roughly 0.2 µg/mL and roughly 0.3 µg/mL, respectively. For the same molecule, the Kd in test [3] worked out at 27 pM; in test [7], 1100 pM; in test [9], 905 pM. The binding result was “no binding” in test [4]; “no binding” in [5]; “binds” in [8]; “binds” in test [11]; “binds” in test [12]; “binds” in [13]. Besides, in [14], the binding result is on record as “binds”. Also, in test [6], the “ADCC EC50, calcein-AM labelled H929 target cells” value was 0.011 µg/mL.

B3: Ab-1 (2A1CV5) (antibody, human IgG1, lambda, V domains shown)
VH: EVQLVESGGGLVKPGGSLRLSCAASGFTFGDYALSWFRQAPGKGLEWVGVSRSKAYGGTTDYAASVKGRFTISRDDSKSTAYLQMNSLKTEDTAVYYCASSGYSSGWTPFDYWGQGTLVTVSS
VL: not shown
For orientation: EC50 means the midpoint of the concentration-response curve. Read a low EC50 as greater potency. Consider B3, for which the Kd was 155 pM in test [16], 27 pM in test [17] and greater than 10000 pM in [19]. Further, the EC50 in [18] worked out at 1200 pM.

B4: 2A1 Covariance 19 (2A1_K14Q + R17G + T24A + G32S + F44V + G56S + D84N + F88T + T98A + C107A + S108K; 2A1_E144K VL) (antibody, human IgG1, lambda, V domains shown)
VH: EVQLVESGGGLVQPGGSLRLSCAASGFTFSDYALSWVRQAPGKGLEWVSVSRSKAYGGTTDYAASVKGRFTISRDNSKSTAYLQMNSLKAEDTAVYYCAKSGYSSGWTPFDYWGQGTLVTVSS
VL: not shown
notes: also called Ab-37
Regarding B4, the binding result in [20] is “binds”.
